From article doi:10.1101/2020.02.11.944462 (bioRxiv, 2020)

Biological target: T1, human angiotensin-converting enzyme 2 (ACE2), residues 1-615, untagged (human, UniProt Q9BYF1 18-615)
T1 construct: also called human ACE2; not shown: TwinStrepTag, C-terminal, cleaved; 8XHisTag, C-terminal, cleaved
Experiment: SPR; […], Biacore X100; 10 mM HEPES pH 8.0, 150 mM NaCl, 0.05% Tween 20; […]; 1:1 binding model
Details: both partners purified

T1 sequence (Q9BYF1 18-615): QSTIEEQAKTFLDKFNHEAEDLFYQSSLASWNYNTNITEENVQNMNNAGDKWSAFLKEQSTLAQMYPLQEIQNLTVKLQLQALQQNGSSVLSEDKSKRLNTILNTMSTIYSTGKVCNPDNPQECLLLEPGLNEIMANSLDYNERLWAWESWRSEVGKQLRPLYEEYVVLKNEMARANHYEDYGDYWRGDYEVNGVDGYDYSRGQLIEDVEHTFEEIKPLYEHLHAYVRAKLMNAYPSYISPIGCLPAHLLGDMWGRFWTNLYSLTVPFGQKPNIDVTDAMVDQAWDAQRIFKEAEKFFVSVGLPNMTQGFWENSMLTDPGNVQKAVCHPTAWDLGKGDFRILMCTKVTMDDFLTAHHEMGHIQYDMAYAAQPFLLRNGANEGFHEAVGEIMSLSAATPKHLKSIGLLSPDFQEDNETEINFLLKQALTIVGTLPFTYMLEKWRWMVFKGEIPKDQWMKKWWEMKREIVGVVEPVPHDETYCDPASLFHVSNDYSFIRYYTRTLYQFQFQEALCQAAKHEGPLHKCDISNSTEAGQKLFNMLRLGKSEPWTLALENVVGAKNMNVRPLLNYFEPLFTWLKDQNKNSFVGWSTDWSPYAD

B1: SARS-CoV RBD-SD1 (S residues 306-577, Urbani strain), His-tagged (domain or fragment)
chain: not shown
B1: binds.
